Drawing on the supplement of paper PMC10567573, this text covers protein stability index for 94 variants.

Sequences and labels used below:
B1: TRIM63 (parent)
chain: FRCPTCRHEVIMDRHGVYGLQRNL
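Also: lentivirally expressed fusions sorted by FACS into six bins by GFP to DsRed ratio, PSI derived from sequencing read proportions per bin multiplied by bin number.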

Variants of B1 are the subject of the series. The series can be described thus: protein stability index of a GFP-peptide fusion (GPS, HEK-293T) (PSI 1-6); higher = more stable. The note with it: c terminus: a fixed tail appended.
Consider FRCPTCRHEVIMDRHGVYGLCRNL, for which the protein stability index was determined as 2.63.
The figure for FRCPTCRHEVIMDRHGVYGLARNL is 1.66; for FRCPTCRHEVIMDRHGVYGLVRNL it is 1.59; for FRCPTCRHEVIMDRHGVYGLHRNL it is 1.86.
As for FRCPTCRHEVIMDRHGVYGLSRNL, the protein stability index was 1.55.
The figure for FRCPTCRHEVIMDRHGVYGLFRNL is 1.27; for FRCPTCRHEVIMDRHGVYGLRRNL it is 1.98.
The figure for FRCPTCRHEVIMDRHGVYGLGRNL is 2.42; for FRCPTCRHEVIMDRHGVYGLYRNL it is 2.17; for FRCPTCRHEVIMDRHGVYGLWRNL it is 2.31.
The figure for FRCPTCRHEVIMDRHGVYGLMRNL is 1.63.
Regarding FRCPTCRHEVIMDRHGVYGLPRNL, the protein stability index worked out at 1.96.
The figure for FRCPTCRHEVIMDRHGVYGLERNL is 2.73.
The figure for FRCPTCRHEVIMDRHGVYGLKRNL is 2.02; for FRCPTCRHEVIMDRHGVYGLIRNL it is 1.74.
The figure for FRCPTCRHEVIMDRHGVYGLLRNL is 3.19.
Take FRCPTCRHEVIMDRHGVYGLDRNL: the protein stability index amounted to 2.1.
The figure for FRCPTCRHEVIMDRHGVYGLNRNL is 2.87; for FRCPTCRHEVIMDRHGVYGVQRNL it is 2.71.
The figure for FRCPTCRHEVIMDRHGVYGFQRNL is 2.02; for FRCPTCRHEVIMDRHGVYGEQRNL it is 2.27.
On to FRCPTCRHEVIMDRHGVYGQQRNL, for which the protein stability index came to 2.07.
The figure for FRCPTCRHEVIMDRHGVYGRQRNL is 1.08.
With FRCPTCRHEVIMDRHGVYGCQRNL, the protein stability index came out at 2.39.
The figure for FRCPTCRHEVIMDRHGVYGNQRNL is 2.05.
The figure for FRCPTCRHEVIMDRHGVYGGQRNL is 1.66; for FRCPTCRHEVIMDRHGVYGYQRNL it is 1.99; for FRCPTCRHEVIMDRHGVYGTQRNL it is 2.81.
The figure for FRCPTCRHEVIMDRHGVYGIQRNL is 1.6; for FRCPTCRHEVIMDRHGVYGDQRNL it is 2.42.
Regarding FRCPTCRHEVIMDRHGVYGHQRNL, the protein stability index turned out to be 2.75.
The figure for FRCPTCRHEVIMDRHGVYGMQRNL is 1.81; for FRCPTCRHEVIMDRHGVYGKQRNL it is 1.51.
Take FRCPTCRHEVIMDRHGVYGPQRNL: the protein stability index came out at 1.77.
The figure for FRCPTCRHEVIMDRHGVYGSQRNL is 2.11; for FRCPTCRHEVIMDRHGVYGAQRNL it is 1.77.
The figure for FRCPTCRHEVIMDRHGVYGWQRNL is 2.25; for FRCPTCRHEVIMDRHGVYGLQRNY it is 2.7; for FRCPTCRHEVIMDRHGVYGLQRNQ it is 2.26.
The figure for FRCPTCRHEVIMDRHGVYGLQRNC is 2.75.
FRCPTCRHEVIMDRHGVYGLQRNT: the protein stability index was 2.98.
The figure for FRCPTCRHEVIMDRHGVYGLQRNV is 2.12.
The figure for FRCPTCRHEVIMDRHGVYGLQRNN is 1.85; for FRCPTCRHEVIMDRHGVYGLQRNE it is 2.46.
The figure for FRCPTCRHEVIMDRHGVYGLQRNA is 2.34; for FRCPTCRHEVIMDRHGVYGLQRNF it is 1.61.
Turning to FRCPTCRHEVIMDRHGVYGLQRNW, the protein stability index is 2.4.
The figure for FRCPTCRHEVIMDRHGVYGLQRNK is 1.89; for FRCPTCRHEVIMDRHGVYGLQRNR it is 1.7; for FRCPTCRHEVIMDRHGVYGLQRNS it is 2.47.
The figure for FRCPTCRHEVIMDRHGVYGLQRND is 2.6; for FRCPTCRHEVIMDRHGVYGLQRNG it is 2.99; for FRCPTCRHEVIMDRHGVYGLQRNH it is 2.88.
The figure for FRCPTCRHEVIMDRHGVYGLQRNI is 1.69; for FRCPTCRHEVIMDRHGVYGLQRNP it is 2.98; for FRCPTCRHEVIMDRHGVYGLQRNM it is 2.03.
For the variant FRCPTCRHEVIMDRHGVYGLQLNL, the protein stability index was determined as 1.34.
The figure for FRCPTCRHEVIMDRHGVYGLQVNL is 2.43; for FRCPTCRHEVIMDRHGVYGLQANL it is 2.29; for FRCPTCRHEVIMDRHGVYGLQENL it is 3.83.
The figure for FRCPTCRHEVIMDRHGVYGLQGNL is 1.98; for FRCPTCRHEVIMDRHGVYGLQYNL it is 1.75; for FRCPTCRHEVIMDRHGVYGLQQNL it is 2.24.
The figure for FRCPTCRHEVIMDRHGVYGLQHNL is 2.17.
Take FRCPTCRHEVIMDRHGVYGLQPNL: the protein stability index came out at 2.49.
The figure for FRCPTCRHEVIMDRHGVYGLQKNL is 2.02.
The figure for FRCPTCRHEVIMDRHGVYGLQWNL is 2.43; for FRCPTCRHEVIMDRHGVYGLQFNL it is 1.84.
On to FRCPTCRHEVIMDRHGVYGLQNNL, for which the protein stability index was 2.95.
For FRCPTCRHEVIMDRHGVYGLQINL, the protein stability index is 3.38.
The figure for FRCPTCRHEVIMDRHGVYGLQSNL is 2.35; for FRCPTCRHEVIMDRHGVYGLQDNL it is 3.21.
Consider FRCPTCRHEVIMDRHGVYGLQMNL, for which the protein stability index is 1.45.
The figure for FRCPTCRHEVIMDRHGVYGLQCNL is 2.29.
The figure for FRCPTCRHEVIMDRHGVYGLQTNL is 2.08; for FRCPTCRHEVIMDRHGVYGLQRGL it is 2.82.
The figure for FRCPTCRHEVIMDRHGVYGLQRRL is 2.54; for FRCPTCRHEVIMDRHGVYGLQRWL it is 2.79.
On to FRCPTCRHEVIMDRHGVYGLQRYL, for which the protein stability index worked out at 1.25.
The figure for FRCPTCRHEVIMDRHGVYGLQRIL is 1.89; for FRCPTCRHEVIMDRHGVYGLQRFL it is 2.02.
Consider FRCPTCRHEVIMDRHGVYGLQRML, for which the protein stability index is 1.47.
On to FRCPTCRHEVIMDRHGVYGLQRAL, for which the protein stability index came out at 1.79.
The figure for FRCPTCRHEVIMDRHGVYGLQRQL is 2.67; for FRCPTCRHEVIMDRHGVYGLQREL it is 2.05.
With FRCPTCRHEVIMDRHGVYGLQRDL, the protein stability index was determined as 2.55.
The figure for FRCPTCRHEVIMDRHGVYGLQRPL is 1.56; for FRCPTCRHEVIMDRHGVYGLQRSL it is 2.14; for FRCPTCRHEVIMDRHGVYGLQRHL it is 2.5.
The figure for FRCPTCRHEVIMDRHGVYGLQRVL is 2.96; for FRCPTCRHEVIMDRHGVYGLQRLL it is 1.7.
The figure for FRCPTCRHEVIMDRHGVYGLQRKL is 2.04.
Regarding FRCPTCRHEVIMDRHGVYGLQRCL, the protein stability index was determined as 2.2.
As to FRCPTCRHEVIMDRHGVYGLQRTL, the protein stability index was determined as 1.67.
